Assay: yeast display, Sf9 membrane polyspecificity reagent, FACS + sequencing; frameworks hold sequencing errors
Summary of the method: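 Nanobodies from a synthetic yeast display library (Saccharomyces cerevisiae BJ5465), induced 36–48 hours with galactose, were stained 1 hour at 4 °C with 10% biotinylated, detergent-solubilized Sf9 membrane reagent, enriched on streptavidin microbeads, then FACS-sorted. Anti-HA (expression) and streptavidin (reagent binding) fluorescence set low and high (top ~1%) gates. Polyreactivity labels come from the gate of origin. Genes were colony-PCR amplified, MiSeq 2 × 250 sequenced and filtered by CDR length.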

| Sequence | polyreactivity (PSR sort gate) |
| --- | --- |
| QVQLVESGGGLVQAGGSLRLSCAASGSTFYWYAMGWYRQAPGKERELVASISWSGGRTYYADSVKGRFTISRDTAKNTVYLQMNSLKPEDTAVYYCAARRKGRYYYWGQGTQVTVSS | high polyreactivity |
| QVQLVESGGGLVQAGGSLRLSCAASGSTFYWYAMGWYRQAPGKERELVASITRSGVRTYYADSVKGRFTISRDNAKNTVYLQMNSLKPEDTAVYYCAAERYYFPRSYRYGYWGQGTQVTVSS | low polyreactivity |
| QVQLVESGGGLVQAGGSLRLSCAASGSTFYYNAMGWYRQAHGKERELVARISRSGGSTYADSVKGRFTISRDNAKNTVYLQMNSLKPEDTAVYYCNADAYGTPEFTSYAVRYDYWGQGTQVTVSS | low polyreactivity |
| QVQLVESGGGLVQAGGSLRLSCAASGSTFYYNAMGWYRQAPGKERELFAAITFTGGSTYADSVKGRFTISRDNAKNTVYLQMNSLKPEDTAVFYCAATIQGHDYLGSGYDYWGQGTQVTVSS | low polyreactivity |
| QVQLVESGGGLVQAGGSLRLSCAASGSTFYYNAMGWYRQAPGKERELVAAISRSGGRTYYADSVKGRFTISRDNAKNTVYLQMNSLKPEDTAVYYCAADAPGHEYYYWGQGTQVTVSS | high polyreactivity |
| QVQLVESGGGLVQAGGSLRLSCAASGSTFYYNAMGWYRQAPGKERELVAAITFTGGSTYADSVKGRFSISRDNAKNTVYLQMNSLKPEDTAVYYCAATIQGHDYLGTGYDYWGQGTQVTVSS | low polyreactivity |
| QVQLVESGGGLVQAGGSLRLSCAASGSTFYYNAMGWYRQAPGKERELVAAITFTGGSTYADSVKGRFTISRDNAKNTVYLQMNSLKPEDTAVFYCAATIQGHDYLGTGYDYWGQGTQVTVSS | low polyreactivity |
| QVQLVESGGGLVQAGGSLRLSCAASGSTFYYNAMGWYRQAPGKERELVAGITSSGGSTYYADSVKGRFTISRDNAKNTVYLQMNSLKPEDTAVYYCAASYKRSRRGYYWGQGTQVTVSS | high polyreactivity |
| QVQLVESGGGLVQAGGSLRLSCAASGSTFYYNAMGWYRQAPGKERELVARISRSGGSTYADSVKGRVTISRDNAKNTVYLQMNSLKPEDTAVYYCNADAYGTPEFTSYAVRYDYWGQGTQVTVSS | low polyreactivity |
| QVQLVESGGGLVQAGGSLRLSCAASGSTFYYVNAMGWYRQAPGKEREFVAAISSSSGSTYYADSVKGRFTISRDNAKNTVYLQMNSLKPEDTAVYYCAKVPRYYKSYYWGQGTQVTVSS | high polyreactivity |
| QVQLVESGGGLVQAGGSLRLSCAASGSTFYYYALGWYRQAPGKERELVASITRGGGSTYYADSVKGRFTISRDNAKNTVYLQMNSLKPEDTAVYYCAARGRFRKYDYWGQGTQVTVSS | high polyreactivity |
| QVQLVESGGGLVQAGGSLRLSCAASGSTFYYYAMGWSRQAPGKERELVATITSGGSTNYADSVKGRFTISRDNAKNTVYLQMNSLKPEDTAVYYCNADDGYSVWGYDYWGQGTQVTVSS | low polyreactivity |
| QVQLVESGGGLVQAGGSLRLSCAASGSTFYYYAMGWYRPAPGKERELVATIDSGTSTYYADSVKGRFTISRDNAKNTVYFQMNSLKPEDTAVYYCAAKTWSWSYGYNYWGQGTLVTVSS | low polyreactivity |
| QVQLVESGGGLVQAGGSLRLSCAASGSTFYYYAMGWYRQAPGKEREFVAAITWSGGSTYYADSVKGRFTISRDNAKNTVYLQMNSLKPEDTAVYYCAKDQRYYYYGGGDYWGQGTQVTVSS | low polyreactivity |
| QVQLVESGGGLVQAGGSLRLSCAASGSTFYYYAMGWYRQAPGKERELVAAINDSGDRTYYADSVKGRFTISRDNAKNNVYLQMNSLKPEDTAVYYCAADLVSLDPEYDYWGQGTQVTVSS | low polyreactivity |
| QVQLVESGGGLVQAGGSLRLSCAASGSTFYYYAMGWYRQAPGKERELVAAINSGGRTNYADSVKGRFTISRDNAKNTVYLQMNSLKPEDTAVYSCARDGYHRDYDYWGQGTQVTVSS | low polyreactivity |
| QVQLVESGGGLVQAGGSLRLSCAASGSTFYYYAMGWYRQAPGKERELVAAITISGGSTYADSVKGRFTISRDNAKNTVYLQMNSLKPEDTALYYCAAYSGVGYLWFDYWGQGTQVTVSS | low polyreactivity |
| QVQLVESGGGLVQAGGSLRLSCAASGSTFYYYAMGWYRQAPGKERELVAAITNVTSTYYADSVKGRFTISRDNAKNTVYLQMNSLKPEDTAGYYCAAPDPSTEVTYDYWGQGTQVTVSS | low polyreactivity |
| QVQLVESGGGLVQAGGSLRLSCAASGSTFYYYAMGWYRQAPGKERELVASITTGGGSTYYADSVKGRFTISRDNAKNTVYLQMNSLKPEDTAVYYCAAALAYYYWWYDYWGQGTQVTVSS | low polyreactivity |
| QVQLVESGGGLVQAGGSLRLSCAASGSTFYYYAMGWYRQAPGKERELVASITTGGGSTYYADSVKGRFTISRDYAKNTVYLQMNSLKPEDTAVYYCAAALAYYYWWYDYWGQGTQVTVSS | low polyreactivity |
| QVQLVESGGGLVQAGGSLRLSCAASGSTFYYYAMGWYRQAPGTAREWVAAISYSGGRTYYADSVKGRFTISRDHAKNTDDIQMNSLKPEYTAVYYCATGQPILALRYAYGYWGQATQVTVSS | low polyreactivity |
| QVQLVESGGGLVQAGGSLRLSCAASGSTFYYYARGWYRQAPGKERELVAAIDRDDRTNYADSVKGRFTISRDNAKNTVYLQMNSLKAEDTAVYYCAAVEIYEYDYWGQGTQVTVSS | low polyreactivity |

| Sequence | polyreactivity (PSR sort gate) |
| --- | --- |
| QVQLVESGGGLVQAGGSLRLSCAASGSTFYYYTMGWYRQAPGKERELVAAISGSGSRTYYADSVKGRFTISRDNAKNTVYLQMNSLNPEDTGVYYCAAKRSYPYGSGYWGQGTQVTVSS | high polyreactivity |
| QVQLVESGGGLVQAGGSLRLSCAASGSTFYYYTMGWYRQAPGKERELVARITRSGGTTYYADSVKGRFTISRDNAKNTVYLQMNSLKPEDTAVYYCAARRYGYTSITWYDYWGQGTLVTVSS | high polyreactivity |
| QVQLVESGGGLVQAGGSLRLSCAASGSTIDPYGMGWYRQAPGKERELVAAITSSGRTNYADSVKGRFTISRDNAKNTVYLQMNSLKPEDTAVYYCNVQTYVELRLDYWGQGTQVTVSS | low polyreactivity |
| QVQLVESGGGLVQAGGSLRLSCAASGSTIDYYAMGLYRQAPGKERELVAGISASGGSTYYADSEKGRFTISRDNAKNTVYLQMNSLKPEDTAVYYCASYYKPPGYDYWGQGTQVTVSS | low polyreactivity |
| QVQLVESGGGLVQAGGSLRLSCAASGSTIERYAMGWYRPAPGKERELVAAIRWSGGSTYYADSVKGRFTISRDNAKNTVYLQMNSLKPEDTAVYYCAASRSNADWFDSLGQGTQVTVSS | high polyreactivity |
| QVQLVESGGGLVQAGGSLRLSCAASGSTIFENVMGWYRQAPGKEREFVAAINTSGGSTYYADSVKGRFTISRDNAKNTVYLQMNSLKPEDTAVYYCARDSYWEMDYWGQGTQVTVSS | low polyreactivity |
| QVQLVESGGGLVQAGGSLRLSCAASGSTIGDNAMGWYRQAPGKERELVASISWSGASTYYADSVKGRFTISRDNAKNTVYLQMNSLKPEDTAVYYCAVYYSYYSHLYHLLFSYWGQGTQVTVSS | low polyreactivity |
| QVQLVESGGGLVQAGGSLRLSCAASGSTIGPYAMGWYRQAPGKERELVAAITESGDSTYYADSVKGRFTISRDTAKNTVYLQMNSLKPEDTAVYYCAADVYGDKMDYWGQGTQVTVSS | low polyreactivity |
| QVQLVESGGGLVQAGGSLRLSCAASGSTIGYYAMGWYRQAPGTERELVAAITRSGGSTSYADSVKGRFTISRDNAKNTVYLQMNSLKPEDTAVYYCAARFYRPYYARQGYNYWGQGTQVTVSS | high polyreactivity |
| QVQLVESGGGLVQAGGSLRLSCAASGSTIIRNAMGWSRQAPGKERELVAAISTSGGRTHYADSVKGRFTISRDNAKNTVYLQMNSLKPEDTAVYYCATRGKGHYYYWGQGTQVTVSS | high polyreactivity |
| QVQLVESGGGLVQAGGSLRLSCAASGSTIKGYDMGWYRQAPGKERELVAAIDSGGSTYYADSVKGRFTISRDNAKNTVYLQMNSLKPEDTAVFYCAAERVSLYWVIFGYWGQGTQVTVSS | low polyreactivity |
| QVQLVESGGGLVQAGGSLRLSCAASGSTILSYGMGWYRQAPGKERELVAGISRGGITYYADSVKGRFTISRDNAKNNVYLQMNSLKPEDTAVYYCNVGLYSYYYRSRPRDYEYWGQGTQVTVSS | high polyreactivity |
| QVQLVESGGGLVQAGGSLRLSCAASGSTINSYAMGWYRQAPGKERELVAAITWIGGNTYYADSVKGRFTISRDNAKNTVYLQMNSLKPEDTAVYYCAADEYFEYYYWGQGTQVTVSS | low polyreactivity |
| QVQLVESGGGLVQAGGSLRLSCAASGSTIPPYVMGWYRQAPGKERELVAAISSSTSSTYYADSVKGRFTISRDNAKNTVYLQMNSLKPEDTAVYYCADEYYTYEYIYDYWGQGTQVTVSS | high polyreactivity |
| QVQLVESGGGLVQAGGSLRLSCAASGSTIPWYAMGWYRQAPGKEREFVAAISWSSGRTYYADSVKGRFTISRDNAKNTVYLQMNSLKPEDTAVYYCAARQWAYYRDVEMGYWGQGTQVTVSS | high polyreactivity |
| QVQLVESGGGLVQAGGSLRLSCAASGSTIRRNAKGWYRQAPGKERELVAAITRRAVSTYYADSVKGRFTISRDNAKNTVYLQMNSLKPEDTAVYYCAADRASYFTYAYGYWGQGTQVTVSS | high polyreactivity |
| QVQLVESGGGLVQAGGSLRLSCAASGSTIRSNAMGWYRQAPGKERELVAAISRTGGRTYYADSVKGRFTISRDNAKNTVYLQMNSLKPEDTAVYYCARPDKRLEYSENYYWGQGTQVTVSS | high polyreactivity |
| QVQLVESGGGLVQAGGSLRLSCAASGSTIRYYAMGWYRQAPGKERELLAAITKSGGSTYYADSVKGRFTISRDNAKNTVYLQMNSLKPEDTAVYFCAAVRRWYYPALSEHDYCGQGTQVTVSS | low polyreactivity |
| QVQLVESGGGLVQAGGSLRLSCAASGSTIRYYAMGWYRQAPGKERELVAANTKSGGSTYYADSVKGRFTISRDNAKNTVYLQMNSPKPEDTAVYSCAAVRRWYYPALSEHDYWGQGTQVTVSS | low polyreactivity |
| QVQLVESGGGLVQAGGSLRLSCAASGSTISGYAKGWYRQAPGKERELVATISRGGSTNYADSVKGRFTISRDNAKNTVYLQMNSLKPEDTEVYYCAAVVSDYVWRYEYWGQGTQVTVSS | low polyreactivity |
| QVQLVESGGGLVQAGGSLRLSCAASGSTISKYAMGWYRQAPGKERYLVAAISSRGGSTYYADSVKGRFTISRDNAKNTVYLQMNSLTPEDTAVYYCNATPYPGGNGRWRFWKSYRYWGQGTQVTVSS | high polyreactivity |

Reference: the nanobody polyreactivity screen of Harvey et al. (2022)
